Data reported in article PMC5352738, “Characterization of three pyranose dehydrogenase isoforms from the litter-decomposing basidiomycete Leucoagaricus meleagris (syn. Agaricus meleagris)” (Applied Microbiology and Biotechnology, 2016).

Each substance was assayed on CCn1c(=N[N]c2sc3cc(S(=O)(=O)O)ccc3[n+]2CC)sc2cc(S(=O)(=O)O)ccc21 (assay: purified protein). Conditions: pH 4.0; 30.0 °C.

Which Km does the source give for AmPDH1 (Macropsalliota meleagris) here?
The Km was 79.1 ± 9 µM.

And the kcat/Km?
Its kcat/Km is 94600 M⁻¹ s⁻¹.

For AmPDH2 (Macropsalliota meleagris), which Km is on record?
The Km was 109 ± 10 µM.

What about the kcat/Km of the same substance?
The kcat/Km was 38900 M⁻¹ s⁻¹.

Which Km does the source give for AmPDH3 (Macropsalliota meleagris) here?
Its Km is 13.2 ± 1.2 µM.

And the kcat/Km?
Its kcat/Km is 532000 M⁻¹ s⁻¹.
